Measured values from PMC4058522, “Structural Basis for Phosphorylation-Dependent Recruitment of Tel2 to Hsp90 by Pih1” (Structure(London, England:1993), 2014).
Entries after “also recorded” stand apart in the source; their conditions may differ.

Legend:
[1] = target: full-length Hsp90 dimer; test: ITC, Spagh/RPAP3 binding to full-length Hsp90 dimer; details: 500 μM yeast Hsp90 into 20 μM Spagh/RPAP3^120–395, 10 mM Tris pH 7.5, 5 mM NaCl, ~1:2 molar ratio
Method: Heat of interaction was measured on an ITC200 microcalorimeter (Microcal) under the same buffer conditions (20 mM Tris, pH 7.5, containing 5 mM NaCl). Aliquots of the Tel2 peptides at 350 μM were injected into 30 μM of Pih1 at 30°C. Interactions with Tah1 or Spagh/RPAP3^120–395 were performed in 10 mM Tris pH 7.5 and 5 mM NaCl at 10°C and 30°C. Aliquots of 600 μM Tah1 were injected into 40 μM of yeast Hsp90, 400 μM of SRMEEVD injected into 30 μM Tah1, 301 μM yeast Hsp90 injected into 25 μM yeast Tah1-Pih1 complex, and 400 μM SRMEEVD injected into 30 μM yeast Tah1-Pih1 complex. For Spagh/RPAP3^120–395 experiments, aliquots of 500 μM yeast Hsp90 were injected into 20 μM Spagh/RPAP3^120–395 or 2 mM […] into 80 μM Spagh/RPAP3^120–395 or mutants (N172E, N321E, and N172E-N321E). Heats of dilution were determined by diluting injectant into buffer. Data were fitted using a curve-fitting algorithm (Microcal Origin). ATPase assays were previously described ([Prodromou et al., 1999]).

[2] = test system: human Hsp90β; test: Hsp90 ATPase assay, human Hsp90β; assay type: biochemical; details: 10 μM Hsp90β, 40 μM RPAP3; % maximum activity of wild type

B1: Spagh/RPAP3: tandem TPR region of human Spagh/RPAP3, residues 120–395 (protein)
chain: ESEEDGIHVDSQKALVLKEKGNKYFKQGKYDEAIDCYTKGMDADPYNPVLPTNRASAYFRLKKFAVAESDCNLAVALNRSYTKAYSRRGAARFALQKLEEAKKDYERVLELEPNNFEATNELRKISQALASKENSYPKEADIVIKSTEGERKQIEAQQNKQQAISEKDRGNGFFKEGKYERAIECYTRGIAADGANALLPANRAMAYLKIQKYEEAEKDCTQAILLDGSYSKAFARRGTARTFLGKLNEAKQDFETVLLLEPGNKQAVTELSKIKK
modifications: left off: GST, end not stated, state not stated
B1 was tested, and the Kd [1] was 6.8 µM and the “effect on ATPase activity of human Hsp90β (in words)” value [2] was “failed to show any strong regulatory effect; also recorded: no major effect”.
